The labels stand for the following.
B1: TBX6 (parent)
chain: AFLELPHGSGGSGYPAAPPAVPFA
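Also: lentivirally expressed fusions sorted by FACS into six bins by GFP to DsRed ratio, PSI derived from sequencing read proportions per bin multiplied by bin number.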

The variants in the series derive from B1. Put plainly: protein stability index of a GFP-peptide fusion (GPS, HEK-293T) (PSI 1-6); higher = more stable. The conditions noted are these: c terminus: a fixed tail appended.
Consider AFLELPHGSGKSGYPAAPPAVPFA, for which the protein stability index was found to be 2.07.
Turning to AFLELPHGSGQSGYPAAPPAVPFA, the protein stability index was determined as 2.2.
The value for AFLELPHGSGSSGYPAAPPAVPFA was 2.7; that for AFLELPHGSGGSGAPAAPPAVPFA was 3.1.
The value for AFLELPHGSGGSGVPAAPPAVPFA was 2.73; that for AFLELPHGSGGSGSPAAPPAVPFA was 3.25.
AFLELPHGSGGSGNPAAPPAVPFA: the protein stability index was found to be 3.54.
For the variant AFLELPHGSGGSGHPAAPPAVPFA, the protein stability index was 2.5.
The value for AFLELPHGSGGSGCPAAPPAVPFA was 2.99.
The value for AFLELPHGSGGSGTPAAPPAVPFA was 3.48; that for AFLELPHGSGGSGKPAAPPAVPFA was 2.78.
The figure for AFLELPHGSEGSGYPAAPPAVPFA is 2.96.
Regarding AFLELPHGSTGSGYPAAPPAVPFA, the protein stability index is 2.1.
The figure for AFLELPHGSVGSGYPAAPPAVPFA is 2.2; for AFLELPHGSNGSGYPAAPPAVPFA it is 2.42; for AFLELPHGSRGSGYPAAPPAVPFA it is 2.07.
The figure for AFLELPHGSQGSGYPAAPPAVPFA is 2.08; for AFLELPHGSLGSGYPAAPPAVPFA it is 2.22.
On to AFLELPHGSDGSGYPAAPPAVPFA, for which the protein stability index is 2.67.
The value for AFLELPHGSYGSGYPAAPPAVPFA was 1.9; that for AFLELPHGSWGSGYPAAPPAVPFA was 1.25; that for AFLELPHGSKGSGYPAAPPAVPFA was 2.01.
Take AFLELPHGSGGSGYPAAPPEVPFA: the protein stability index was 2.87.
Turning to AFLELPHGSGGSGYPAAPPQVPFA, the protein stability index stood at 2.99.
The figure for AFLELPHGSGGSGYPAAPPYVPFA is 2.03; for AFLELPHGSGGSGYPAAPPFVPFA it is 2.4; for AFLELPHGSGGSGYPAAPPDVPFA it is 3.49.
The figure for AFLELPHGSGGSGYPAAPPSVPFA is 2.52.
The value for AFLELPHGSGGSEYPAAPPAVPFA was 2.61; that for AFLELPHGSGGSRYPAAPPAVPFA was 2.22; that for AFLELPHGSGGSFYPAAPPAVPFA was 2.21.
For the variant AFLELPHGSGGSWYPAAPPAVPFA, the protein stability index was found to be 1.73.
The figure for AFLELPHGSGGSNYPAAPPAVPFA is 2.4; for AFLELPHGSGGSKYPAAPPAVPFA it is 2.58; for AFLELPHGSGGSSYPAAPPAVPFA it is 2.44.
Regarding AFLELPHGSGGSYYPAAPPAVPFA, the protein stability index was determined as 1.66.
The value for AFLELPHGSGGSTYPAAPPAVPFA was 2.52.
The value for AFLELPHGSGGSGYPAAPPAVQFA was 2.52; that for AFLELPHGSGGSGYPAAPPAVWFA was 2.25; that for AFLELPHGSGGSGYPAAPPAVRFA was 2.3.
Turning to AFLELPHGSGGSGYPAAPPAVVFA, the protein stability index was found to be 2.16.
The figure for AFLELPHGSGGSGYPAAPPAVYFA is 2.02; for AFLELPHGSGGSGYPAAPPAVEFA it is 2.54.
The value for AFLELPHGSGGSGYPAAPPAVIFA was 1.73.
AFLELPHGSGGSGYPAAPPAVCFA: the protein stability index was found to be 2.1.
Take AFLELPHGSGGSGYPAAPPAVFFA: the protein stability index amounted to 2.13.
The value for AFLELPHGNGGSGYPAAPPAVPFA was 2.61; that for AFLELPHGFGGSGYPAAPPAVPFA was 1.45; that for AFLELPHGCGGSGYPAAPPAVPFA was 1.96.
The value for AFLELPHGIGGSGYPAAPPAVPFA was 2.12.
As for AFLELPHGMGGSGYPAAPPAVPFA, the protein stability index was determined as 1.9.
As for AFLELPHGAGGSGYPAAPPAVPFA, the protein stability index turned out to be 3.21.
In the case of AFLELPHGDGGSGYPAAPPAVPFA, the protein stability index came out at 2.6.
Turning to AFLELPHGQGGSGYPAAPPAVPFA, the protein stability index worked out at 2.63.
The figure for AFLELPHGGGGSGYPAAPPAVPFA is 2.41; for AFLELPHGSGGSGYPAAPPAVPYA it is 2.42; for AFLELPHGSGGSGYPAAPPAVPCA it is 3.36.
The figure for AFLELPHGSGGSGYPAAPPAVPLA is 2.35.
Regarding AFLELPHGSGGSGYPAAPPAVPAA, the protein stability index amounted to 3.48.
The value for AFLELPHGSGGSGYPAAPPAVPGA was 3.72.
For AFLELPHGSGGSGYPAAPPAVPHA, the protein stability index stood at 3.05.
The value for AFLELPHGSGGSGYPAAPPAVPIA was 2.52; that for AFLELPHGSGGSGYPAAPPAVPNA was 3.76.
For the variant AFLELDHGSGGSGYPAAPPAVPFA, the protein stability index was determined as 2.31.
The value for AFLELWHGSGGSGYPAAPPAVPFA was 2.9; that for AFLELRHGSGGSGYPAAPPAVPFA was 1.53.
In the case of AFLELAHGSGGSGYPAAPPAVPFA, the protein stability index came out at 1.64.
Turning to AFLELSHGSGGSGYPAAPPAVPFA, the protein stability index was 2.47.
Regarding AFLELTHGSGGSGYPAAPPAVPFA, the protein stability index was determined as 2.21.
The figure for AFLELCHGSGGSGYPAAPPAVPFA is 1.34.
With AFLELPLGSGGSGYPAAPPAVPFA, the protein stability index came out at 1.97.
Turning to AFLELPMGSGGSGYPAAPPAVPFA, the protein stability index worked out at 2.1.
Turning to AFLELPRGSGGSGYPAAPPAVPFA, the protein stability index was found to be 2.67.
Turning to AFLELPTGSGGSGYPAAPPAVPFA, the protein stability index was determined as 2.41.
The figure for AFLELPPGSGGSGYPAAPPAVPFA is 2.78.
The value for AFLELPGGSGGSGYPAAPPAVPFA was 2.74.
Regarding AFLELPKGSGGSGYPAAPPAVPFA, the protein stability index came out at 2.69.
The figure for AFLELPCGSGGSGYPAAPPAVPFA is 2.12; for AFLELPNGSGGSGYPAAPPAVPFA it is 2.2; for AFLELPFGSGGSGYPAAPPAVPFA it is 1.85.
The figure for AFLELPYGSGGSGYPAAPPAVPFA is 2.34; for AFLELPQGSGGSGYPAAPPAVPFA it is 2.4.
The figure for AFLELPHWSGGSGYPAAPPAVPFA is 1.93; for AFLELPHYSGGSGYPAAPPAVPFA it is 1.97.
With AFLELPHTSGGSGYPAAPPAVPFA, the protein stability index came out at 2.27.
Regarding AFLELPHRSGGSGYPAAPPAVPFA, the protein stability index worked out at 2.1.
AFLELPHMSGGSGYPAAPPAVPFA: the protein stability index stood at 2.57.
With AFLELPHHSGGSGYPAAPPAVPFA, the protein stability index stood at 2.27.
The figure for AFLEDPHGSGGSGYPAAPPAVPFA is 2.81; for AFLENPHGSGGSGYPAAPPAVPFA it is 2.74; for AFLEPPHGSGGSGYPAAPPAVPFA it is 3.17.
On to AFLEHPHGSGGSGYPAAPPAVPFA, for which the protein stability index was determined as 2.9.
The value for AFLEWPHGSGGSGYPAAPPAVPFA was 2.32.
Turning to AFLETPHGSGGSGYPAAPPAVPFA, the protein stability index amounted to 2.61.

Source of the values: the supplement of paper PMC10567573.
